Experimental data as given in US7067646 (Dana-Farber, dated 2006).
Blank lines part the entries; values can stand above or below the binder they belong to.

Key:
GST-RB (379-928) = biological target: T1, GST-RB (379-928) (UniProt P06400 379-928); test: GST-RB (379-928) pull-down of His-tagged fragment from E. coli, Coomassie stain and anti-His immunoblot
T1 construct: Expressed in E. coli; also called large pocket domain of RB as GST fusion; not shown: glutathione S-transferase (GST) fusion partner of vector pGEX6P-1
T1 sequence (looked up): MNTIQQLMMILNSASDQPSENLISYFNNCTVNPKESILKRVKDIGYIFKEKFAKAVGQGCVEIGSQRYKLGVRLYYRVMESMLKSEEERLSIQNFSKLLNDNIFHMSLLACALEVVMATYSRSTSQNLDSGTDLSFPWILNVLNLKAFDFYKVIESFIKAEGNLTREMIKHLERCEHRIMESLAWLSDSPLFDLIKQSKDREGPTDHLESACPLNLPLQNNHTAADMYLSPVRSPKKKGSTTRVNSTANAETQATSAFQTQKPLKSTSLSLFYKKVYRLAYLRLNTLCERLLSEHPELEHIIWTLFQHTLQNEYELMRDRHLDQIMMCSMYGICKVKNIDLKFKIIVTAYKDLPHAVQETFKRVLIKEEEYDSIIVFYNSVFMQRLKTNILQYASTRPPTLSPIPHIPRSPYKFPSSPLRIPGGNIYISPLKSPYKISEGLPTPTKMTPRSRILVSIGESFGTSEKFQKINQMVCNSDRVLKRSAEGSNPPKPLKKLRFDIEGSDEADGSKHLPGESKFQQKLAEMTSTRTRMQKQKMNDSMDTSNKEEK

[1] = biological target: T2, MTAF600 (microtubule associated factor 600) (human, UniProt Q5T4S7 1-5183); test: immunoprecipitation with p107 antibody from HeLa extract, anti-MTAF600 immunoblot
T2 construct: Native endogenous protein of HeLa nuclear extracts (5183 residues); also called MT-associated factor (MTAF) 600; 600 kDa subunit
T2 sequence (Q5T4S7 other isoform, or with tags, fused parts or gaps limits assumed): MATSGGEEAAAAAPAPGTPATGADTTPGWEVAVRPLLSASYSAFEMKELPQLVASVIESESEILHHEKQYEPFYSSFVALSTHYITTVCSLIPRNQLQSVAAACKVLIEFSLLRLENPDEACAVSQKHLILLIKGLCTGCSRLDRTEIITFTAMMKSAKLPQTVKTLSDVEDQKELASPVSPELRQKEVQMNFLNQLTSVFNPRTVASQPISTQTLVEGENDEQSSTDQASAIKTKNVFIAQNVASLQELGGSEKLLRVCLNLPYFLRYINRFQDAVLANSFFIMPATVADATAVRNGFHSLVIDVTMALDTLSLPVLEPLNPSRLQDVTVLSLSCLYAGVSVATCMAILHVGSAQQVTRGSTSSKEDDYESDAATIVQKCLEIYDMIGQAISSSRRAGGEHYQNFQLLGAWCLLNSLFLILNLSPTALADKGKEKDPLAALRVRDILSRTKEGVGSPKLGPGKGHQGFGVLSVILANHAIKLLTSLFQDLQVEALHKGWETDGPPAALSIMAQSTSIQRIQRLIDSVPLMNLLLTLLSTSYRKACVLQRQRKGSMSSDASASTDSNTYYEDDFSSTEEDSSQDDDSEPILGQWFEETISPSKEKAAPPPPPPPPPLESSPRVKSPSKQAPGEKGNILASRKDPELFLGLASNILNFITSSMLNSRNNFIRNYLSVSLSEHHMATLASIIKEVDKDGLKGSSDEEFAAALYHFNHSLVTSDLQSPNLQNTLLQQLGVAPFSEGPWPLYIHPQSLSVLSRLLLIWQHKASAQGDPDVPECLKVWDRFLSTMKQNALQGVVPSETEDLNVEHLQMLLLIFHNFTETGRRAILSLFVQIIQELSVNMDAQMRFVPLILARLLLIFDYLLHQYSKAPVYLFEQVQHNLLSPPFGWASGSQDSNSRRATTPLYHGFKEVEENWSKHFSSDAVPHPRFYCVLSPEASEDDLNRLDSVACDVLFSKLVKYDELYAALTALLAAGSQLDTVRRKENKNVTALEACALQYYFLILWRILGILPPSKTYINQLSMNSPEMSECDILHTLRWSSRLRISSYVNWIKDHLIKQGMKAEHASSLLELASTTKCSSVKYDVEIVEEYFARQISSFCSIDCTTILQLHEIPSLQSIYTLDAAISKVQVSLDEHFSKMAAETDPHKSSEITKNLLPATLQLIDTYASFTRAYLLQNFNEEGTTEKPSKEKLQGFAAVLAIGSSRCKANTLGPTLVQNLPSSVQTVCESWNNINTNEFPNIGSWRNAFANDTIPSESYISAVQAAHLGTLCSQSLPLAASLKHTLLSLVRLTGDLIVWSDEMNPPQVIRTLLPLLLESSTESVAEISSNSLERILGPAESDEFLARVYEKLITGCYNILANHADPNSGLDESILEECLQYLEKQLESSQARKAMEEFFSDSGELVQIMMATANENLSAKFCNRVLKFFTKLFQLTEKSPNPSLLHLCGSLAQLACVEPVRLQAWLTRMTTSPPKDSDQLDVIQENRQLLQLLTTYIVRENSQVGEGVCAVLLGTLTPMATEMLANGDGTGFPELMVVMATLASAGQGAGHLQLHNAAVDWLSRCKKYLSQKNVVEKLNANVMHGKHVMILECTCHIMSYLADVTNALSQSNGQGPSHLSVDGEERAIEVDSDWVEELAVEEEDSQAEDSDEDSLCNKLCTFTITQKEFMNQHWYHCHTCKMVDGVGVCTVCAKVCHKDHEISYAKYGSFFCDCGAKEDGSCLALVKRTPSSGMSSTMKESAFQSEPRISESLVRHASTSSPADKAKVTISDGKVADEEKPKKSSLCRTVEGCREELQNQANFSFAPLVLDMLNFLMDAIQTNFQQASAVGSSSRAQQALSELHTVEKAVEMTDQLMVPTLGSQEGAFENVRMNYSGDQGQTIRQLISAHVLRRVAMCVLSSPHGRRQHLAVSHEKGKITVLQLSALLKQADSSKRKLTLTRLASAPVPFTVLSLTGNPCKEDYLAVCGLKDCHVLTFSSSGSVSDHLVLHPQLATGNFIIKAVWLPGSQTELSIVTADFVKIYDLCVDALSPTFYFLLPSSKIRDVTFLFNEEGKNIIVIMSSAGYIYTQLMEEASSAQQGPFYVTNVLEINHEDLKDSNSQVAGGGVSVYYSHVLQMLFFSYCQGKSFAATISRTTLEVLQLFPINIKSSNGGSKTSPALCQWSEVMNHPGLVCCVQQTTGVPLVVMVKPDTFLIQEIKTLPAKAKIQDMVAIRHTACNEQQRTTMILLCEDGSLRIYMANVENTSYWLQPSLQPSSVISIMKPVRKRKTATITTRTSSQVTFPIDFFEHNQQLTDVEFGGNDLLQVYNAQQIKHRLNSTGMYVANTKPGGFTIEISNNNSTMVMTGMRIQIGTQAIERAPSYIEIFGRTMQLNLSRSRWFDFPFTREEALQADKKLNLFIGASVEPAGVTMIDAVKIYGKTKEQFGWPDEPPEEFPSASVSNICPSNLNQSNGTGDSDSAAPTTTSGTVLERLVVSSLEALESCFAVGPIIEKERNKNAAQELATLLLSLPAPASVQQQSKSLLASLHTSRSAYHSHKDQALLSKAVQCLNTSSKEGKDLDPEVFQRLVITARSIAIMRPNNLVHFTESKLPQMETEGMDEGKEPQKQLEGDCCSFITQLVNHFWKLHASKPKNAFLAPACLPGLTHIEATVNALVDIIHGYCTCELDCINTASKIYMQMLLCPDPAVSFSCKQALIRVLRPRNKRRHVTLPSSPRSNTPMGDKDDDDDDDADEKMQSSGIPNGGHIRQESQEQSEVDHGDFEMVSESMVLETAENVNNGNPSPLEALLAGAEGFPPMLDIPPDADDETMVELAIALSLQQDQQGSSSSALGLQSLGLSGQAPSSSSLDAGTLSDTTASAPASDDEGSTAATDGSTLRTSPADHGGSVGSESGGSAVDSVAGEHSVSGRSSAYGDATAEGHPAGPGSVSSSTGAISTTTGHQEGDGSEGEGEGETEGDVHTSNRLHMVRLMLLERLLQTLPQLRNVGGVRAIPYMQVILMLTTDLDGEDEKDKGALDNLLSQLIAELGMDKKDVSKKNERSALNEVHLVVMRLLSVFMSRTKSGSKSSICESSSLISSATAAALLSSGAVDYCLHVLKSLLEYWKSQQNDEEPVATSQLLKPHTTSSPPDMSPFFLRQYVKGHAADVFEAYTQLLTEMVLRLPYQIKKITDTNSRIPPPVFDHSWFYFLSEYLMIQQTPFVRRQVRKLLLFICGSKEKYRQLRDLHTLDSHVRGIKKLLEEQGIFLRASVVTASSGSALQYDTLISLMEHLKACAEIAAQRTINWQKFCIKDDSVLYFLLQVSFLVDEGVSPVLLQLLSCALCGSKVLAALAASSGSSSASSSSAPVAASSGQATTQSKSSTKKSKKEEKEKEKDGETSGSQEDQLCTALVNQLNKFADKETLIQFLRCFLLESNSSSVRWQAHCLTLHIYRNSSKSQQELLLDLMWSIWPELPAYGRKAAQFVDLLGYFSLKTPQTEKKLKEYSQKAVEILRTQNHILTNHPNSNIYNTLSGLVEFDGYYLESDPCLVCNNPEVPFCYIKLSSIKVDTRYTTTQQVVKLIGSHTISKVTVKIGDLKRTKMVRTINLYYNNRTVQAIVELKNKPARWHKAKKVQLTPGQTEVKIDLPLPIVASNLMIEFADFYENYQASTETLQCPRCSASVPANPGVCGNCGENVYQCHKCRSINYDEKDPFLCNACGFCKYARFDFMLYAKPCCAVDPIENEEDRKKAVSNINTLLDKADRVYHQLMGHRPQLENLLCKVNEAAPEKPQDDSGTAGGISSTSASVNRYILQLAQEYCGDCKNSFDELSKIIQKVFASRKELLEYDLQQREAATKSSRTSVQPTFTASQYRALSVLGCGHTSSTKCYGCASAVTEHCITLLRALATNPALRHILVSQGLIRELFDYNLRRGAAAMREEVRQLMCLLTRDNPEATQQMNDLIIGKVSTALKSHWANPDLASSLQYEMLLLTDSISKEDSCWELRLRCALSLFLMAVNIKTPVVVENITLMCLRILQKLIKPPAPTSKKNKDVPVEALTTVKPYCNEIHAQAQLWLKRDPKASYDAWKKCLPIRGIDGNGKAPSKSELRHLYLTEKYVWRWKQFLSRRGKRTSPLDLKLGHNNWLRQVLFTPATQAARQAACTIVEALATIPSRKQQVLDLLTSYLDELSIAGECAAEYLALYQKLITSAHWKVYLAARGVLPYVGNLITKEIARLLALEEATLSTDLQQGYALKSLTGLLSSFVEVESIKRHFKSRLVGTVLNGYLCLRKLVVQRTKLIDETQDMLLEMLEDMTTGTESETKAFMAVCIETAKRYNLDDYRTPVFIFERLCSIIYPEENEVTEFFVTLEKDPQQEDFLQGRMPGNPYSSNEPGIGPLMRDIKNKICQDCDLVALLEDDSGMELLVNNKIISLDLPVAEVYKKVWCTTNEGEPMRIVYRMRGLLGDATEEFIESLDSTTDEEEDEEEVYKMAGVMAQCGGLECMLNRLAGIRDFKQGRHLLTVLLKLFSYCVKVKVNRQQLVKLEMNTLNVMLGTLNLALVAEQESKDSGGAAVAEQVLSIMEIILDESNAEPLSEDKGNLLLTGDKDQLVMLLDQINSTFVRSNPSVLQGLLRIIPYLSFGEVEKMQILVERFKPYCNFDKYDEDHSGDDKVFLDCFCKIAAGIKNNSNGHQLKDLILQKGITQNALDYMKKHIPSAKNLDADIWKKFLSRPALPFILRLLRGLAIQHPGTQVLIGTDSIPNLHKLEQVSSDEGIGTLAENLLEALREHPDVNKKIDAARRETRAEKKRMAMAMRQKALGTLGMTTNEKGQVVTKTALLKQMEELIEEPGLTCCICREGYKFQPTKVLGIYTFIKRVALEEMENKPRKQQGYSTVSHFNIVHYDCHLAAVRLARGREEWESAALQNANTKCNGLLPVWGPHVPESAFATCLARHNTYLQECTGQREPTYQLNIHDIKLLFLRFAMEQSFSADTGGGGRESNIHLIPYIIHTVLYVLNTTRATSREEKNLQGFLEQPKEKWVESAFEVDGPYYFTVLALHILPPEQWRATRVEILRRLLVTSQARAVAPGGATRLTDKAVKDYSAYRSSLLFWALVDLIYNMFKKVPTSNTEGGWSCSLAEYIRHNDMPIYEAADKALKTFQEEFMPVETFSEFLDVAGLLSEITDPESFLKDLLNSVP

[2] = biological target: T2, MTAF600 (microtubule associated factor …); test: immunoprecipitation with RB antibody from HeLa extract, anti-MTAF600 immunoblot
[3] = biological target: T2, MTAF600 (microtubule associated factor …); test: anti-FLAG immunoprecipitation of C-terminally tagged RB from HeLa cells
[4] = biological target: T2, MTAF600 (microtubule associated factor …); test: immunoprecipitation with p130 antibody from HeLa extract, anti-MTAF600 immunoblot

B2: p107, endogenous, HeLa extract (other, UniProt P28749 1-1068, looked up)
chain: MFEDKPHAEGAAVVAAAGEALQALCQELNLDEGSAAEALDDFTAIRGNYSLEGEVTHWLACSLYVACRKSIIPTVGKGIMEGNCVSLTRILRSAKLSLIQFFSKMKKWMDMSNLPQEFRERIERLERNFEVSTVIFKKYEPIFLDIFQNPYEEPPKLPRSRKQRRIPCSVKDLFNFCWTLFVYTKGNFRMIGDDLVNSYHLLLCCLDLIFANAIMCPNRQDLLNPSFKGLPSDFHTADFTASEEPPCIIAVLCELHDGLLVEAKGIKEHYFKPYISKLFDRKILKGECLLDLSSFTDNSKAVNKEYEEYVLTVGDFDERIFLGADAEEEIGTPRKFTRDTPLGKLTAQANVEYNLQQHFEKKRSFAPSTPLTGRRYLREKEAVITPVASATQSVSRLQSIVAGLKNAPSDQLINIFESCVRNPVENIMKILKGIGETFCQHYTQSTDEQPGSHIDFAVNRLKLAEILYYKILETVMVQETRRLHGMDMSVLLEQDIFHRSLMACCLEIVLFAYSSPRTFPWIIEVLNLQPFYFYKVIEVVIRSEEGLSRDMVKHLNSIEEQILESLAWSHDSALWEALQVSANKVPTCEEVIFPNNFETGNGGNVQGHLPLMPMSPLMHPRVKEVRTDSGSLRRDMQPLSPISVHERYSSPTAGSAKRRLFGEDPPKEMLMDKIITEGTKLKIAPSSSITAENVSILPGQTLLTMATAPVTGTTGHKVTIPLHGVANDAGEITLIPLSMNTNQESKVKSPVSLTAHSLIGASPKQTNLTKAQEVHSTGINRPKRTGSLALFYRKVYHLASVRLRDLCLKLDVSNELRRKIWTCFEFTLVHCPDLMKDRHLDQLLLCAFYIMAKVTKEERTFQEIMKSYRNQPQANSHVYRSVLLKSIPREVVAYNKNINDDFEMIDCDLEDATKTPDCSSGPVKEERGDLIKFYNTIYVGRVKSFALKYDLANQDHMMDAPPLSPFPHIKQQPGSPRRISQQHSIYISPHKNGSGLTPRSALLYKFNGSPSKSLKDINNMIRQGEQRTKKRVIAIDSDAESPAKRVCQENDDVLLKRLQDVVSERANH
binding result [1]: binds

B3: RB (retinoblastoma protein), endogenous, HeLa extract (other, human, UniProt P06400 2-928, looked up)
chain: PPKTPRKTAATAAAAAAEPPAPPPPPPPEEDPEQDSGPEDLPLVRLEFEETEEPDFTALCQKLKIPDHVRERAWLTWEKVSSVDGVLGGYIQKKKELWGICIFIAAVDLDEMSFTFTELQKNIEISVHKFFNLLKEIDTSTKVDNAMSRLLKKYDVLFALFSKLERTCELIYLTQPSSSISTEINSALVLKVSWITFLLAKGEVLQMEDDLVISFQLMLCVLDYFIKLSPPMLLKEPYKTAVIPINGSPRTPRRGQNRSARIAKQLENDTRIIEVLCKEHECNIDEVKNVYFKNFIPFMNSLGLVTSNGLPEVENLSKRYEEIYLKNKDLDARLFLDHDKTLQTDSIDSFETQRTPRKSNLDEEVNVIPPHTPVRTVMNTIQQLMMILNSASDQPSENLISYFNNCTVNPKESILKRVKDIGYIFKEKFAKAVGQGCVEIGSQRYKLGVRLYYRVMESMLKSEEERLSIQNFSKLLNDNIFHMSLLACALEVVMATYSRSTSQNLDSGTDLSFPWILNVLNLKAFDFYKVIESFIKAEGNLTREMIKHLERCEHRIMESLAWLSDSPLFDLIKQSKDREGPTDHLESACPLNLPLQNNHTAADMYLSPVRSPKKKGSTTRVNSTANAETQATSAFQTQKPLKSTSLSLFYKKVYRLAYLRLNTLCERLLSEHPELEHIIWTLFQHTLQNEYELMRDRHLDQIMMCSMYGICKVKNIDLKFKIIVTAYKDLPHAVQETFKRVLIKEEEYDSIIVFYNSVFMQRLKTNILQYASTRPPTLSPIPHIPRSPYKFPSSPLRIPGGNIYISPLKSPYKISEGLPTPTKMTPRSRILVSIGESFGTSEKFQKINQMVCNSDRVLKRSAEGSNPPKPLKKLRFDIEGSDEADGSKHLPGESKFQQKLAEMTSTRTRMQKQKMNDSMDTSNKEEK
notes: Endogenous RB, both phosphorylation forms together
binding result [2]: binds

B4: RB with the FLAG tag at the C-terminus (other, UniProt P06400 2-928, looked up, not shown: small tags and cut ends)
chain: PPKTPRKTAATAAAAAAEPPAPPPPPPPEEDPEQDSGPEDLPLVRLEFEETEEPDFTALCQKLKIPDHVRERAWLTWEKVSSVDGVLGGYIQKKKELWGICIFIAAVDLDEMSFTFTELQKNIEISVHKFFNLLKEIDTSTKVDNAMSRLLKKYDVLFALFSKLERTCELIYLTQPSSSISTEINSALVLKVSWITFLLAKGEVLQMEDDLVISFQLMLCVLDYFIKLSPPMLLKEPYKTAVIPINGSPRTPRRGQNRSARIAKQLENDTRIIEVLCKEHECNIDEVKNVYFKNFIPFMNSLGLVTSNGLPEVENLSKRYEEIYLKNKDLDARLFLDHDKTLQTDSIDSFETQRTPRKSNLDEEVNVIPPHTPVRTVMNTIQQLMMILNSASDQPSENLISYFNNCTVNPKESILKRVKDIGYIFKEKFAKAVGQGCVEIGSQRYKLGVRLYYRVMESMLKSEEERLSIQNFSKLLNDNIFHMSLLACALEVVMATYSRSTSQNLDSGTDLSFPWILNVLNLKAFDFYKVIESFIKAEGNLTREMIKHLERCEHRIMESLAWLSDSPLFDLIKQSKDREGPTDHLESACPLNLPLQNNHTAADMYLSPVRSPKKKGSTTRVNSTANAETQATSAFQTQKPLKSTSLSLFYKKVYRLAYLRLNTLCERLLSEHPELEHIIWTLFQHTLQNEYELMRDRHLDQIMMCSMYGICKVKNIDLKFKIIVTAYKDLPHAVQETFKRVLIKEEEYDSIIVFYNSVFMQRLKTNILQYASTRPPTLSPIPHIPRSPYKFPSSPLRIPGGNIYISPLKSPYKISEGLPTPTKMTPRSRILVSIGESFGTSEKFQKINQMVCNSDRVLKRSAEGSNPPKPLKKLRFDIEGSDEADGSKHLPGESKFQQKLAEMTSTRTRMQKQKMNDSMDTSNKEEK
notes: also called C-terminally tagged RB
binding result [3]: binds

Results, then the binder that gave them:

binding result (GST-RB (379-928)): no binding
B1: His-tagged MTAF600 (4529-4851) (other)
chain: EMNTLNVMLGTLNLALVAEQESKDSGGAAVAEQVLSIMEIILDESNAEPLSEDKGNLLLTGDKDQLVMLLDQINSTFVRSNPSVLQGLLRIIPYLSFGEVEKMQILVERFKPYCNFDKYDEDHSGDDKVFLDCFCKIAAGIKNNSNGHQLKDLILQKGITQNALDYMKKHIPSAKNLDADIWKKFLSRPALPFILRLLRGLAIQHPGTQVLIGTDSIPNLHKLEQVSSDEGIGTLAENLLEALREHPDVNKKIDAARRETRAEKKRMAMAMRQKALGTLGMTTNEKGQVVTKTALLKQMEELIEEPGLTCCICREGYKFQPTK
notes: Expressed in E. coli; not shown: His tag of vector pET28c

binding result [4]: binds
B5: p130, endogenous, HeLa extract (other, UniProt Q08999 1-1139, looked up)
chain: MPSGGDQSPPPPPPPPAAAASDEEEEDDGEAEDAAPPAESPTPQIQQRFDELCSRLNMDEAARAEAWDSYRSMSESYTLEGNDLHWLACALYVACRKSVPTVSKGTVEGNYVSLTRILKCSEQSLIEFFNKMKKWEDMANLPPHFRERTERLERNFTVSAVIFKKYEPIFQDIFKYPQEEQPRQQRGRKQRRQPCTVSEIFHFCWVLFIYAKGNFPMISDDLVNSYHLLLCALDLVYGNALQCSNRKELVNPNFKGLSEDFHAKDSKPSSDPPCIIEKLCSLHDGLVLEAKGIKEHFWKPYIRKLYEKKLLKGKEENLTGFLEPGNFGESFKAINKAYEEYVLSVGNLDERIFLGEDAEEEIGTLSRCLNAGSGTETAERVQMKNILQQHFDKSKALRISTPLTGVRYIKENSPCVTPVSTATHSLSRLHTMLTGLRNAPSEKLEQILRTCSRDPTQAIANRLKEMFEIYSQHFQPDEDFSNCAKEIASKHFRFAEMLYYKVLESVIEQEQKRLGDMDLSGILEQDAFHRSLLACCLEVVTFSYKPPGNFPFITEIFDVPLYHFYKVIEVFIRAEDGLCREVVKHLNQIEEQILDHLAWKPESPLWEKIRDNENRVPTCEEVMPPQNLERADEICIAGSPLTPRRVTEVRADTGGLGRSITSPTTLYDRYSSPPASTTRRRLFVENDSPSDGGTPGRMPPQPLVNAVPVQNVSGETVSVTPVPGQTLVTMATATVTANNGQTVTIPVQGIANENGGITFFPVQVNVGGQAQAVTGSIQPLSAQALAGSLSSQQVTGTTLQVPGQVAIQQISPGGQQQKQGQSVTSSSNRPRKTSSLSLFFRKVYHLAAVRLRDLCAKLDISDELRKKIWTCFEFSIIQCPELMMDRHLDQLLMCAIYVMAKVTKEDKSFQNIMRCYRTQPQARSQVYRSVLIKGKRKRRNSGSSDSRSHQNSPTELNKDRTSRDSSPVMRSSSTLPVPQPSSAPPTPTRLTGANSDMEEEERGDLIQFYNNIYIKQIKTFAMKYSQANMDAPPLSPYPFVRTGSPRRIQLSQNHPVYISPHKNETMLSPREKIFYYFSNSPSKRLREINSMIRTGETPTKKRGILLEDGSESPAKRICPENHSALLRRLQDVANDRGSH
